Measurements: publication PMC7732827, “Autoregulation of yeast ribosomal proteins discovered by efficient search for feedback regulation”

Target: Rpl1B-HIS (Saccharomyces cerevisiae, UniProt P0CX44 1-217)
Assay: EMSA; 20 mM Mg2+; 400 nM RNA, 0.1-1 ug protein in 10 ul; 50 mM Tris-HCl pH 8.5, 350 mM KCl, 20 mM MgCl2, 0.1% NP-40, 10% glycerol, 30 min at 4 C; 7.5% Tris-glycine PAGE in the cold room
Conditions: protein: recombinant; tags: C-terminal His6 (HHHHHH); label: none (SYBR Green I stain); two hairpins (HP1, HP2), predicted

Chain of Rpl1B-HIS (P0CX44 whole entry): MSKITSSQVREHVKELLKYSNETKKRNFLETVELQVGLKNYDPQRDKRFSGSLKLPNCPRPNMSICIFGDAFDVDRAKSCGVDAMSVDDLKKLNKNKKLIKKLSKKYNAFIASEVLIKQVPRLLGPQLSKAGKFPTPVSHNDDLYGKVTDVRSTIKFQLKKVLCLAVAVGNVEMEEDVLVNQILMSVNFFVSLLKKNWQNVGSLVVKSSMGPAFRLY

B1: RPL1B-UTR RNA, synthetic (structured_RNA)
RNA: AUAGAACUAGUCGCAAGCCUCACGGACCACCAAAUACUUUGGAAGACUAAUUACAUAUCAUAAA
binding result: binds
